Experimental data from IntAct's records for PubMed 16388599.

B1: Tyrosine-protein phosphatase non-receptor type 1 (Homo sapiens), P18031 (parent)
chain: MEMEKEFEQIDKSGSWAAIYQDIRHEASDFPCRVAKLPKNKNRNRYRDVSPFDHSRIKLHQEDNDYINASLIKMEEAQRSYILTQGPLPNTCGHFWEMVWEQKSRGVVMLNRVMEKGSLKCAQYWPQKEEKEMIFEDTNLKLTLISEDIKSYYTVRQLELENLTTQETREILHFHYTTWPDFGVPESPASFLNFLFKVRESGSLSPEHGPVVVHCSAGIGRSGTFCLADTCLLLMDKRKDPSSVDIKKVLLEMRKFRMGLIQTADQLRFSYLAVIEGAKFIMGDSSVQDQWKELSHEDLEPPPEHIPPPPRPPKRILEPHNGKCREFFPNHQWVKEETQEDKDCPIKEEKGSPLNAAPYGIESMSQDTEVRSRVVGGSLRGAQAASPAKGEPSLPEKDEDHALSYWKPFLVNMCVATVLTAGAYLCYRFLFNSNT

Variants of: B1
Details: with cav1_human CAV1, Q03135
Sequence of cav1_human CAV1, Q03135 (Q03135 whole entry): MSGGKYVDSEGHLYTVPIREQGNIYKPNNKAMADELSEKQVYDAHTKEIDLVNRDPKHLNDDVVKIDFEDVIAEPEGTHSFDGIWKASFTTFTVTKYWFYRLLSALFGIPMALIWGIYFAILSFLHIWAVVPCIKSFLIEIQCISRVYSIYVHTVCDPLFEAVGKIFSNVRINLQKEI

Variant | effect of a mutation on the interaction
D181A | disrupting interaction
